From patent US20200024322A1 (Eli Lilly, published 2020)
Numbered stars: 1 amine (or outer) side, 2 acyl side, 3 side chain; on linkers, the order of the positions; unused ones are H or OH. Square brackets hold non-standard residues; d marks the D form. Side chains are listed from the residue outwards. Ends that are not written are not given here. * marks the point of attachment. C20 diacid = O=C(O)CCCCCCCCCCCCCCCCCCC(=O)*; γGlu = O=C(O)[C@H](CCC(=O)[*:2])N[*:1]; AEEA = NCCOCCOCC(=O)O; Aib = CC(C)(N)C(=O)O

Columns and labels:
human GIP receptor = target: T1, human GIP receptor (human, UniProt P48546 22-466); test: SPA, [125I]-GIP displacement, hGIPR membranes
T1 construct: whole, on cells; Used as crude membranes of stably transfected CHO cells; also called hGIPR
T1 sequence (looked up): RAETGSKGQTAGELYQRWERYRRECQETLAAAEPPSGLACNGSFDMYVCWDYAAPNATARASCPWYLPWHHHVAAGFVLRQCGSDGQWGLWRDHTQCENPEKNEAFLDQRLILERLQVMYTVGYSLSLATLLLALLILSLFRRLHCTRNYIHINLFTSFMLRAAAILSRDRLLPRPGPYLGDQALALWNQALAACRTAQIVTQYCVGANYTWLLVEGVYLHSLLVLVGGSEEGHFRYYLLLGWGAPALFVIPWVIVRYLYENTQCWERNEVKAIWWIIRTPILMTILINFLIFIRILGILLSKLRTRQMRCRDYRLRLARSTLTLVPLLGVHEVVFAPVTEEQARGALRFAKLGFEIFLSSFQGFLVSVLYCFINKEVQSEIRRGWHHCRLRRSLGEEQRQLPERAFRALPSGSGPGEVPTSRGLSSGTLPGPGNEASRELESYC

human glucagon receptor = target: T2, human glucagon receptor (human, UniProt P47871 26-477); test: SPA, [125I]-Gcg displacement, hGcgR membranes
T2 construct: whole, on cells; Used as crude membranes of stably transfected HEK293 cells; also called hGcgR; hGLcgR
T2 sequence (P47871 26-477): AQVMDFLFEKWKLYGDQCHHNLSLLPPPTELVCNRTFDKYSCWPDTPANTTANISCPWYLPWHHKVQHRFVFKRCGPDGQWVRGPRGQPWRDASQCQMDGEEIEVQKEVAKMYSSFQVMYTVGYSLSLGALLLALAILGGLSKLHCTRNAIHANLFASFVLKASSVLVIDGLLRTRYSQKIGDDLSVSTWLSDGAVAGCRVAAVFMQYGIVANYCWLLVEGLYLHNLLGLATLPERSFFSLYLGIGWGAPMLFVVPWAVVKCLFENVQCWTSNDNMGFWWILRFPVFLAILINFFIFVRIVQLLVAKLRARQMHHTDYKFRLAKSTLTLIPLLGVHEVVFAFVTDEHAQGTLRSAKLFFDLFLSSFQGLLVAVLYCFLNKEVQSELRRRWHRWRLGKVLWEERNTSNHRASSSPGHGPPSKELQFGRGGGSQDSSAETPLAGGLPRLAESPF

human GLP-1 receptor = target: T3, human GLP-1 receptor (human, UniProt P43220 24-463); test: SPA, [125I]-GLP-1 displacement, hGLP-1R membranes
T3 construct: whole, on cells; Used as crude membranes of stably transfected HEK293 cells; also called hGLP1R; hGLP-1R

B1: Example 37 (peptide)
peptide: Y[Aib]EGTFTSDYSILLDKIAQ[Aib]AFIEYLIK([AEEA-AEEA-γGlu-C20 diacid])GGPSSGAPPPS-NH2
modifications: N-terminus assumed
SMILES: CC[C@H](C)[C@H](NC(=O)[C@H](CCCCN)NC(=O)[C@H](CC(=O)O)NC(=O)[C@H](CC(C)C)NC(=O)[C@H](CC(C)C)NC(=O)[C@@H](NC(=O)[C@H](CO)NC(=O)[C@H](Cc1ccc(O)cc1)NC(=O)[C@H](CC(=O)O)NC(=O)[C@H](CO)NC(=O)[C@@H](NC(=O)[C@H](Cc1ccccc1)NC(=O)[C@@H](NC(=O)CNC(=O)[C@H](CCC(=O)O)NC(=O)C(C)(C)NC(=O)[C@@H](N)Cc1ccc(O)cc1)[C@@H](C)O)[C@@H](C)O)[C@@H](C)CC)C(=O)N[C@@H](C)C(=O)N[C@@H](CCC(N)=O)C(=O)NC(C)(C)C(=O)N[C@@H](C)C(=O)N[C@@H](Cc1ccccc1)C(=O)N[C@H](C(=O)N[C@@H](CCC(=O)O)C(=O)N[C@@H](Cc1ccc(O)cc1)C(=O)N[C@@H](CC(C)C)C(=O)N[C@H](C(=O)N[C@@H](CCCCNC(=O)COCCOCCNC(=O)COCCOCCNC(=O)CC[C@H](NC(=O)CCCCCCCCCCCCCCCCCCC(=O)O)C(=O)O)C(=O)NCC(=O)NCC(=O)N1CCC[C@H]1C(=O)N[C@@H](CO)C(=O)N[C@@H](CO)C(=O)NCC(=O)N[C@@H](C)C(=O)N1CCC[C@H]1C(=O)N1CCC[C@H]1C(=O)N1CCC[C@H]1C(=O)N[C@@H](CO)C(N)=O)[C@@H](C)CC)[C@@H](C)CC
Ki (human GIP receptor): 0.0523 nM
Ki (human glucagon receptor): 255 nM
Ki (human GLP-1 receptor): 3.84 nM

B2: Example 42 (peptide)
peptide: Y[Aib]EGTFTSDYSILLDKIAQ[Aib]AFIEYLIEGGPSK([AEEA-AEEA-γGlu-C20 diacid])GAPPPS-NH2
modifications: N-terminus assumed
SMILES: CC[C@H](C)[C@H](NC(=O)[C@H](CCCCN)NC(=O)[C@H](CC(=O)O)NC(=O)[C@H](CC(C)C)NC(=O)[C@H](CC(C)C)NC(=O)[C@@H](NC(=O)[C@H](CO)NC(=O)[C@H](Cc1ccc(O)cc1)NC(=O)[C@H](CC(=O)O)NC(=O)[C@H](CO)NC(=O)[C@@H](NC(=O)[C@H](Cc1ccccc1)NC(=O)[C@@H](NC(=O)CNC(=O)[C@H](CCC(=O)O)NC(=O)C(C)(C)NC(=O)[C@@H](N)Cc1ccc(O)cc1)[C@@H](C)O)[C@@H](C)O)[C@@H](C)CC)C(=O)N[C@@H](C)C(=O)N[C@@H](CCC(N)=O)C(=O)NC(C)(C)C(=O)N[C@@H](C)C(=O)N[C@@H](Cc1ccccc1)C(=O)N[C@H](C(=O)N[C@@H](CCC(=O)O)C(=O)N[C@@H](Cc1ccc(O)cc1)C(=O)N[C@@H](CC(C)C)C(=O)N[C@H](C(=O)N[C@@H](CCC(=O)O)C(=O)NCC(=O)NCC(=O)N1CCC[C@H]1C(=O)N[C@@H](CO)C(=O)N[C@@H](CCCCNC(=O)COCCOCCNC(=O)COCCOCCNC(=O)CC[C@H](NC(=O)CCCCCCCCCCCCCCCCCCC(=O)O)C(=O)O)C(=O)NCC(=O)N[C@@H](C)C(=O)N1CCC[C@H]1C(=O)N1CCC[C@H]1C(=O)N1CCC[C@H]1C(=O)N[C@@H](CO)C(N)=O)[C@@H](C)CC)[C@@H](C)CC
Ki (human GIP receptor): 0.0514 nM
Ki (human glucagon receptor): 160 nM
Ki (human GLP-1 receptor): 13.2 nM

B3: Example 41 (peptide)
peptide: Y[Aib]EGTFTSDYSILLDKIAQ[Aib]AFIEYLIEGGPK([AEEA-AEEA-γGlu-C20 diacid])SGAPPPS-NH2
modifications: N-terminus assumed
SMILES: CC[C@H](C)[C@H](NC(=O)[C@H](CCCCN)NC(=O)[C@H](CC(=O)O)NC(=O)[C@H](CC(C)C)NC(=O)[C@H](CC(C)C)NC(=O)[C@@H](NC(=O)[C@H](CO)NC(=O)[C@H](Cc1ccc(O)cc1)NC(=O)[C@H](CC(=O)O)NC(=O)[C@H](CO)NC(=O)[C@@H](NC(=O)[C@H](Cc1ccccc1)NC(=O)[C@@H](NC(=O)CNC(=O)[C@H](CCC(=O)O)NC(=O)C(C)(C)NC(=O)[C@@H](N)Cc1ccc(O)cc1)[C@@H](C)O)[C@@H](C)O)[C@@H](C)CC)C(=O)N[C@@H](C)C(=O)N[C@@H](CCC(N)=O)C(=O)NC(C)(C)C(=O)N[C@@H](C)C(=O)N[C@@H](Cc1ccccc1)C(=O)N[C@H](C(=O)N[C@@H](CCC(=O)O)C(=O)N[C@@H](Cc1ccc(O)cc1)C(=O)N[C@@H](CC(C)C)C(=O)N[C@H](C(=O)N[C@@H](CCC(=O)O)C(=O)NCC(=O)NCC(=O)N1CCC[C@H]1C(=O)N[C@@H](CCCCNC(=O)COCCOCCNC(=O)COCCOCCNC(=O)CC[C@H](NC(=O)CCCCCCCCCCCCCCCCCCC(=O)O)C(=O)O)C(=O)N[C@@H](CO)C(=O)NCC(=O)N[C@@H](C)C(=O)N1CCC[C@H]1C(=O)N1CCC[C@H]1C(=O)N1CCC[C@H]1C(=O)N[C@@H](CO)C(N)=O)[C@@H](C)CC)[C@@H](C)CC
Ki (human GIP receptor): 0.0551 nM
Ki (human glucagon receptor): 165 nM
Ki (human GLP-1 receptor): 13.4 nM

B4: Example 40 (peptide)
peptide: Y[Aib]EGTFTSDYSILLDKIAQ[Aib]AFIEYLIEGGK([AEEA-AEEA-γGlu-C20 diacid])SSGAPPPS-NH2
modifications: N-terminus assumed
SMILES: CC[C@H](C)[C@H](NC(=O)[C@H](CCCCN)NC(=O)[C@H](CC(=O)O)NC(=O)[C@H](CC(C)C)NC(=O)[C@H](CC(C)C)NC(=O)[C@@H](NC(=O)[C@H](CO)NC(=O)[C@H](Cc1ccc(O)cc1)NC(=O)[C@H](CC(=O)O)NC(=O)[C@H](CO)NC(=O)[C@@H](NC(=O)[C@H](Cc1ccccc1)NC(=O)[C@@H](NC(=O)CNC(=O)[C@H](CCC(=O)O)NC(=O)C(C)(C)NC(=O)[C@@H](N)Cc1ccc(O)cc1)[C@@H](C)O)[C@@H](C)O)[C@@H](C)CC)C(=O)N[C@@H](C)C(=O)N[C@@H](CCC(N)=O)C(=O)NC(C)(C)C(=O)N[C@@H](C)C(=O)N[C@@H](Cc1ccccc1)C(=O)N[C@H](C(=O)N[C@@H](CCC(=O)O)C(=O)N[C@@H](Cc1ccc(O)cc1)C(=O)N[C@@H](CC(C)C)C(=O)N[C@H](C(=O)N[C@@H](CCC(=O)O)C(=O)NCC(=O)NCC(=O)N[C@@H](CCCCNC(=O)COCCOCCNC(=O)COCCOCCNC(=O)CC[C@H](NC(=O)CCCCCCCCCCCCCCCCCCC(=O)O)C(=O)O)C(=O)N[C@@H](CO)C(=O)N[C@@H](CO)C(=O)NCC(=O)N[C@@H](C)C(=O)N1CCC[C@H]1C(=O)N1CCC[C@H]1C(=O)N1CCC[C@H]1C(=O)N[C@@H](CO)C(N)=O)[C@@H](C)CC)[C@@H](C)CC
Ki (human GIP receptor): 0.0345 nM
Ki (human glucagon receptor): 150 nM
Ki (human GLP-1 receptor): 7.56 nM

B5: Example 43 (peptide)
peptide: Y[Aib]EGTFTSDYSILLDKIAQ[Aib]AFIEYLIEGGPSSK([AEEA-AEEA-γGlu-C20 diacid])APPPS-NH2
modifications: N-terminus assumed
SMILES: CC[C@H](C)[C@H](NC(=O)[C@H](CCCCN)NC(=O)[C@H](CC(=O)O)NC(=O)[C@H](CC(C)C)NC(=O)[C@H](CC(C)C)NC(=O)[C@@H](NC(=O)[C@H](CO)NC(=O)[C@H](Cc1ccc(O)cc1)NC(=O)[C@H](CC(=O)O)NC(=O)[C@H](CO)NC(=O)[C@@H](NC(=O)[C@H](Cc1ccccc1)NC(=O)[C@@H](NC(=O)CNC(=O)[C@H](CCC(=O)O)NC(=O)C(C)(C)NC(=O)[C@@H](N)Cc1ccc(O)cc1)[C@@H](C)O)[C@@H](C)O)[C@@H](C)CC)C(=O)N[C@@H](C)C(=O)N[C@@H](CCC(N)=O)C(=O)NC(C)(C)C(=O)N[C@@H](C)C(=O)N[C@@H](Cc1ccccc1)C(=O)N[C@H](C(=O)N[C@@H](CCC(=O)O)C(=O)N[C@@H](Cc1ccc(O)cc1)C(=O)N[C@@H](CC(C)C)C(=O)N[C@H](C(=O)N[C@@H](CCC(=O)O)C(=O)NCC(=O)NCC(=O)N1CCC[C@H]1C(=O)N[C@@H](CO)C(=O)N[C@@H](CO)C(=O)N[C@@H](CCCCNC(=O)COCCOCCNC(=O)COCCOCCNC(=O)CC[C@H](NC(=O)CCCCCCCCCCCCCCCCCCC(=O)O)C(=O)O)C(=O)N[C@@H](C)C(=O)N1CCC[C@H]1C(=O)N1CCC[C@H]1C(=O)N1CCC[C@H]1C(=O)N[C@@H](CO)C(N)=O)[C@@H](C)CC)[C@@H](C)CC
Ki (human GIP receptor): 0.101 nM
Ki (human glucagon receptor): 134 nM
Ki (human GLP-1 receptor): 11.8 nM

B6: Example 39 (peptide)
peptide: Y[Aib]EGTFTSDYSILLDKIAQ[Aib]AFIEYLIEGK([AEEA-AEEA-γGlu-C20 diacid])PSSGAPPPS-NH2
modifications: N-terminus assumed
SMILES: CC[C@H](C)[C@H](NC(=O)[C@H](CCCCN)NC(=O)[C@H](CC(=O)O)NC(=O)[C@H](CC(C)C)NC(=O)[C@H](CC(C)C)NC(=O)[C@@H](NC(=O)[C@H](CO)NC(=O)[C@H](Cc1ccc(O)cc1)NC(=O)[C@H](CC(=O)O)NC(=O)[C@H](CO)NC(=O)[C@@H](NC(=O)[C@H](Cc1ccccc1)NC(=O)[C@@H](NC(=O)CNC(=O)[C@H](CCC(=O)O)NC(=O)C(C)(C)NC(=O)[C@@H](N)Cc1ccc(O)cc1)[C@@H](C)O)[C@@H](C)O)[C@@H](C)CC)C(=O)N[C@@H](C)C(=O)N[C@@H](CCC(N)=O)C(=O)NC(C)(C)C(=O)N[C@@H](C)C(=O)N[C@@H](Cc1ccccc1)C(=O)N[C@H](C(=O)N[C@@H](CCC(=O)O)C(=O)N[C@@H](Cc1ccc(O)cc1)C(=O)N[C@@H](CC(C)C)C(=O)N[C@H](C(=O)N[C@@H](CCC(=O)O)C(=O)NCC(=O)N[C@@H](CCCCNC(=O)COCCOCCNC(=O)COCCOCCNC(=O)CC[C@H](NC(=O)CCCCCCCCCCCCCCCCCCC(=O)O)C(=O)O)C(=O)N1CCC[C@H]1C(=O)N[C@@H](CO)C(=O)N[C@@H](CO)C(=O)NCC(=O)N[C@@H](C)C(=O)N1CCC[C@H]1C(=O)N1CCC[C@H]1C(=O)N1CCC[C@H]1C(=O)N[C@@H](CO)C(N)=O)[C@@H](C)CC)[C@@H](C)CC
Ki (human GIP receptor): 0.0499 nM
Ki (human glucagon receptor): 161 nM
Ki (human GLP-1 receptor): 16.8 nM
